According to patent US20250277767A1:

B1: mAb-EspB-B7 (antibody, V domains shown)
VH: EVQLLESGGGLVQPGGSLRLSCAASGFTFSHYAMNWVRQAPGKGLEWVSAINSNGDSTYYPDTVKDRFTISRDNSKNTLYLQMNSLRAEDTAVYYCARDRRAGYFDYWGQGTLVTVSS
VL: DIVLTQPPSASGTPGQRVTISCSGSRDNIGKNYVSWYQQLPGTAPKLLIYRNNQRPSGVPDRFSGSKSGTSASLAISGLRSEDEADYYCSAWDTSLNAYVFGPGTQLTVL

Key:
[1] = target: peptide #49+50 (combined sequences of peptides #49 and #50) (Enteropathogenic Escherichia coli (EPEC)); assay: ELISA, plate coated with peptide #49+50, serially diluted mAb
[2] = target: peptide #49 (cyclic EspB peptide, positions 193-207) (Enteropathogenic Escherichia coli (EPEC)); assay: ELISA, plate coated with peptide #49, serially diluted mAb
[3] = target: peptide #50 (cyclic EspB peptide, positions 197-211) (Enteropathogenic Escherichia coli (EPEC)); assay: ELISA, plate coated with peptide #50, serially diluted mAb

Row | Binder | IC50 (read off the curve) (mAb-EspB-B7) [µg/mL] | EC50 (read off the curve) [1] [µg/mL] | EC50 (read off the curve) [2] [µg/mL] | EC50 (read off the curve) [3] [µg/mL]
1 | CTSAQKASQVAEEAADAAQEC (modifications not checked) [peptide #49+50 (combined sequences of peptides #49 and #50)] | 2 |  |  | 
2 | B1 |  | 0.3 | 0.5 | 0.5
